Earlier results in PMC3343272.

Target: Nonmuscle myosin IIA M32 1907-1938 (Homo sapiens) (UniProt P35579)
Assay: kinetic assay

Sequence of Nonmuscle myosin IIA M32 1907-1938 (Homo sapiens) (P35579 1907-1938): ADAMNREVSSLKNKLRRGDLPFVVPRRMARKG
Sequence of S100A4 (P26447 2-101): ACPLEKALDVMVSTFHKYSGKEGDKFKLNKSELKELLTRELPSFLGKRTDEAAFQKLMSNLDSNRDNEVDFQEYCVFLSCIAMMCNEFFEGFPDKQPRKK

Kd: 3 µM
Substance: S100A4 (from UniProt P26447)
